Residue numbers refer to the chain shown, from its start.
B1: 4L19 (antibody, V domains shown)
VH: QVQLQQSGAELMKPGASVKLSCKATGYTFTGYWIEWVKQRPGHGLEWIGEISSGGYNTNYNKKFKGKATFTVDTSSNTAYMQLSSLTTEDSAIYYCTRDSNDYYFDYWGQGTTLTVSS
VL: DVVMTQTPLTLSVTIGQPASISCKSSQSLLHRNGKTHLNWLLQRPGQSPKLLIYLVSKLESGVPDRFSGSGSGTDFTLRISRVEAEDLGVYYCLQVTHFPYTFGSGTKLEIK
notes: Murine anti-human CD53 mAb purified from subcloned hybridoma; detected with anti-mouse IgG
B2: 3G02 (antibody, V domains shown)
VH: EVQLQQSVAELVRPGASVKLSCTASGFNIKNTYMHWVKQRPEQGLEWIGRIDPAIGYTEYAPKFQGKATITADTSSNTAWLQLSSLTSEDTAIYYCAGGGPYYAMDYWGRGTSVTVSS
VL: DIVMTQAAPSIPVTPGESVSISCRSSKSLLHSNGDTYLYWFLQRPGQSPQVLIYRMSNLASGVPARFSGSGSGTAFTLRISRVEAEDVGVYYCMQHLEYPFTFGAGTKLELK
notes: as for B1
B3: 4C22 (antibody, V domains shown)
VH: EVQLQQSGAELVRPGASVKLSCTASGFNIKDDFMNWVKQRPEQGLEWIGRIDPANGHTKYAPKFQDKATITADTSSNTAFLHLSSLTSEDTAVYFCARWIPPYWGQGTLVTVSA
VL: B2 VL with I11V, V19A, V51L, A65D, H96L, F101Y, A105G, L111I
notes: as for B1
B4: 4J16 (antibody, V domains shown)
VH: EVQLQQSGAELVRPGASVRLSCTASGFNIKDDFLHWVNQRPEQGLEWIGRIDPANGNTKYAPKFRDRATITADTSSNTAYLQLSSLTSEDTAVYYCVRVYGDYWGQGTTLTVSS
VL: DIVMTQAAFSNPVTLGTSASISCRSSKSLLHSNGITYLYWYLQKPGQSPQLLIYQMSNLASGVPDRFSSSGSGTDFTLRISRVEAEDVGVYYCAQNLELPLTFGAGTKLELK
notes: as for B1
B5: 4G15 (antibody, V domains shown)
VH: EVQLQQSGAELVRPGASVKLSCTTSGFNIKDDFMHWVKQRPEQGLEWIGWIDPENGNTQYASKFQGKATITADTSSNTAYLQLSSLTSEDTAVYYCTSYYEETMDYWGQGTSVTVSS
VL: B4 VL with R24S, K44R, Q55R, S69G, N96M, L99R, L101R, A105G, L111I
notes: as for B1
B6: 4K13 (antibody, V domains shown)
VH: EVQLQQSVAELVRPGASVKLSCTASGLNIKNTYMNWVKQRPEQGLEWIGRIDPANGYTKYAPKFQGKTTITAATSSNTAFLQLSSLTSGDTAIYYCTTAVVATGDYWGQGTTLTVSS
VL: B4 VL with N33D, Y41F, K44R, Q55R, S69G, N96M, L99F, L101F, A105T, L111I
notes: as for B1

These binders were tested against T1, Human CD53-CHO (full-length human CD53 over-expressed on CHO-K1 cells) (human, UniProt P19397 1-219) (assay: flow cytometry on CD53-CHO cells, anti-mouse IgG AF647 gMFI, 4-parameter fit).
T1 construct: Tetraspanin cell-surface antigen
T1 sequence: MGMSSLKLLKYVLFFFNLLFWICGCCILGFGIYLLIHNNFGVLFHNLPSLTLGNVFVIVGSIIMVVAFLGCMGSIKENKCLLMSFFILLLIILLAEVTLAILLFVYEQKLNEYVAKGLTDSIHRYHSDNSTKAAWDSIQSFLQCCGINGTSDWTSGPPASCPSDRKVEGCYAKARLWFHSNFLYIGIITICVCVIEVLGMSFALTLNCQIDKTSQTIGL
Description: Binding of anti-human CD53 antibodies was determined by flow cytometry for their ability to bind human CD53-CHO cells compared to parental CHO-K1 cells. All assay steps were performed in FACS buffer (phosphate buffered saline pH 7.4 supplemented with 2% fetal bovine serum). Twenty thousand cells were seeded in 384-well plates and washed twice with ice cold buffer. Cells were incubated with purified antibodies titrated 3-fold from 200 nM to 0.09 nM at 4° C. for 1 hour with gentle agitation, then washed twice with FACS buffer and incubated with anti-mouse IgG Alexa Fluor® 647 and incubated at 4° C. for 40 minutes. Cells were washed twice and resuspended in FACS buffer. Analysis was preformed on the IntelliCyt® iQue Screener and gMFI values for Alexa Fluor® 647 were generated. EC50 values were determined in GraphPad Prism8. Concentration was transformed from nM to Log 10 nM and curves were fit with a nonlinear regression of log(agonist) vs. response−Variable slope (four parameters) or Y=Bottom+(Top−Bottom)/(1+10\hat{ }((LogEC50−X)*HillSlope)). EC50 values for all anti-human CD53 antibodies can be found in Table 6, and representative binding curves can be found in FIG. 7. Binding to CD53-CHO is represented by closed symbols and binding to parental CHO-K1 cells is represented by open symbols.
B1 showed an EC50 of 4.3 nM. B2 was tested, and the EC50 was roughly 7 nM. B3 was tested, and the EC50 was roughly 7 nM. In the case of B4, the EC50 is reported as 1.6 nM. In the case of B5, the EC50 is reported as 3.8 nM. B6 was tested, and the EC50 was roughly 1 nM.

— patent publication US20220251233A1 (VERSEAU THERAPEUTICS, published 2022)
